# US20260274984A1 (NATIONAL RESEARCH COUNCIL OF CANADA, published 2026)
# Where a chain is given by its changes, count along the chain named.
# T1: recombinant mouse mesothelin extracellular domain (mMSLN-ECD) (mouse, UniProt Q61468 298-600, limits assumed)
# T1 construct: extracellular domain; also called mouse MSLN; mouse MSLN-ECD
# T1 sequence (looked up): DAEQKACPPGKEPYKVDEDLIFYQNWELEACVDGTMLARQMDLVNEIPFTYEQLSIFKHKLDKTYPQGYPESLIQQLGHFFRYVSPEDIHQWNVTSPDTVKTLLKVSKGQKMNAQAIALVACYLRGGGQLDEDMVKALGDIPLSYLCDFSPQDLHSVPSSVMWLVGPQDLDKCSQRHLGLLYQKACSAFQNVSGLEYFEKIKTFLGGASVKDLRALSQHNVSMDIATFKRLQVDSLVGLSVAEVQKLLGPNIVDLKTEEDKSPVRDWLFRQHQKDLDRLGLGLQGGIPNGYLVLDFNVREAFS
# B1: hMSLN-bioTP7-7 (VHH)
# VHH: QVQLVESGGGLVQAGGSLRLSCAASGRTVSTYNMAWFRQAPGKEREIVAVINWTGGSTYYAESVKGRFTISRDNPKNTVYLQMNSLKPEDTAVYYCAATRTSWTENTYWGQGTQVTVSS
# modifications: C-terminal His tag and AviTag from vector pMRO; letters not given, left off
# notes: Llama VHH expressed in E. coli
# B2: hMSLN-TP7-38A (VHH)
# VHH: B1 VHH with Q3K, V5E, A14P, T31A, S57G
# notes: Llama VHH expressed in E. coli; also called VHH # 6
# B3: hMSLN-TP7-9 (VHH)
# VHH: B1 VHH with Q1D, E6D, R72G, T101A
# notes: Llama VHH expressed in E. coli; biotinylated form used in the Mirrorball assay; also called VHH # 3
# B4: hMSLN-biomTP7-41 (VHH)
# VHH: QVQLVESGGGLVQPGGSLRLSCTASGIVRASGMAWYRQAPGKQRELVASITTGGETTWYADSVKGRFTISIDNAKMMLYLQMNALKPEDTAVYLCNQRSYWGQGTQVTVSS
# modifications: C-terminal His tag and AviTag from vector pMRO; letters not given, left off
# notes: Llama VHH expressed in E. coli; also called VHH # 9
# B5: hMSLN-bioTP7-53 (VHH)
# VHH: QVQLVESGGGLVQPGGSLRLACAASGGIGSLSNVRWYRQGPGKEREYVAGITGQSTTYYADSVKGRFTISRDNVKNTVDLQMNSLKPEDTAVYICNVATLRNEYWGQGTQVTVSS
# notes: Llama VHH expressed in E. coli; also called VHH # 11
# B6: hMSLN-TP7-18 (VHH)
# VHH: EVQLVESGGRLVQAGGSLRLSCVASGRAFKWWTMGWFRQAPGKEREFVASISWSDGSTTYGDSVKGRFAISRDNNKNTVYLQMNSLTPEDTAVYYCARYGKDLSGRHSKNVQDYDYWGQGTQVTVSS
# notes: Llama VHH expressed in E. coli; also called VHH # 4
# B7: hMSLN-mTP7-82 (VHH)
# VHH: QVQLVESGGGLVQAGGSLRLSCAASGSIRSASGMHWYRQAPGKERELVASITTSGETTWYRDSVKGRFTISINNAKMMLYLQMNSLKFEDTAVYYCNLRSYWGQGTQVTVSS
# notes: as for B1
# B8: hMSLN-TP7-4 (VHH)
# VHH: QVQLVGSGGGLVRAGGSLRLSCAGSGLTFGSYAMAWYRQAPGKQRELVASISSRGVTNYADSVEGRFTISRDNAKSTVYLQMNDLKPEDAAVYYCNAKGPFMLREYDYWGQGTQVTVSS
# notes: Llama VHH expressed in E. coli BL21(DE3), IMAC purified, monomeric SEC fraction used for SPR; biotinylated form used in the Mirrorball assay; also called VHH # 1
# B9: hMSLN-TP7-56 (VHH)
# VHH: QVQLVESGGGLVQAGGSLRISCVASGRDFSSHFMGWSRQAPGKEREFVAAISWSGGTTYYADSVKGRFAISRDNDKTTVYLQMNSLKPEDSAVYYCAARRTYDSRTSLRNSYDYPYWGQGTQVTVSS
# modifications: C-terminal His tag and AviTag (biotinylated in the Mirrorball assay) from vector pMRO; letters not given, left off
# notes: Llama VHH expressed in E. coli; biotinylated form used in the Mirrorball assay; also called VHH # 7
# B10: hMSLN-TP7-75A (VHH)
# VHH: QVQLVESGGGLVQAGGSLSLSCAASGRTFSASAMAWFRQAPGTDREFVAAVAWGGRDTHYADSVKGRFTISMNNAKNTVVLQMNSLKPEDTAVYYCAAGQRGWSHSTSRDYDYWGQGTQVTVSS
# notes: Llama VHH expressed in E. coli; also called VHH # 12
# B11: hMSLN-TP7-35 (VHH)
# VHH: QVQLVDSGGGLVQPGGSLRLSCTTSASTFRFFAMHWYRQAPGKERELVAVISRDGDAEYVDSVKGRFTISRDNAKNAVYLQMNSLKPEDTAVYYCHTRILSDHYWGQGTQVTVSS
# modifications: C-terminal His tag and AviTag from vector pMRO; letters not given, left off
# notes: Llama VHH expressed in E. coli; also called VHH # 5
# B12: hMSLN-bioTP7-48 (VHH)
# VHH: QVKLEESGGGLVQPGGSLRLSCTASGSIWSASGLTWYRQRPGNERELVASITTGGETTWYADSVKGRFTISISRDNGKMITYLQMNSLKPEDTAVYLCNSRSYWGQGTQVTVSS
# notes: Llama VHH expressed in E. coli; also called VHH # 10
# B13: hMSLN-TP7-5 (VHH)
# VHH: QVKLEESGGGLVQAGGSLRISCAASGRSISDYFMGWFRQTPGKEREFVAAISWSGGTAYYADSVKGRFTISRDNAKNTGYLQMNSLKPEDTAVYFCAARLSYDSRTSLQNSYDYNYWGQGTQVTVSS
# notes: Llama VHH expressed in E. coli; biotinylated form used in the Mirrorball assay; also called VHH # 2
# Biological target: T1, recombinant mouse mesothelin …
# Experiment: SPR, VHH over immobilized mouse MSLN-ECD
# Experimental: For surface Plasmon resonance, as mentioned above selected VHHs were passed though size exclusion columns, Superdex 75 (GE Healthcare), respectively, in 10 mM HEPES, pH 7.4, containing 150 mM NaCl, 3 mM EDTA, and monomeric sdAb fractions were collected and protein concentrations were determined by measuring absorbance at 280 nm (A280). SPR analysis were performed with Biacore T200 instrument (GE Healthcare). All measurements were carried out at 25° C. in 10 mM HEPES, pH 7.4, containing 150 mM NaCl, 3 mM EDTA and 0.005% surfactant P20 (GE Healthcare). Approximately 500 RUs of the recombinant monomeric human and mouse MSLN-ECD (obtained after SEC purification of the MSLN-ECD) were captured on SA sensor chip (GE Healthcare) at a flow rate of 5 uL/min. Various concentration of the monomeric VHHs (20-500 nM) were injected over MSLN-ECD surface, respectively using an SA surface as a reference at a flow rate of 40 μL/min. Surfaces were generated by washing with running buffer. Data were analysed with BIAevaluation 4.1 software.
# The monomeric fraction of VHHs obtained by SEC purification were used for SPR experiment where the human or mouse MSLN-ECD was immobilized onto the […] and various VHH concentration (20-500 nM) were passed over the sensor chip. […] All of the data collected fit a 1:1 binding model (Table 3A).
Kd,binding result,Binder
218 nM,–,B1
–,no binding (tested: 20-500 nM),B2
–,no binding (tested: 20-500 nM),B3
–,no binding (tested: 20-500 nM),B4
–,no binding (tested: 20-500 nM),B5
–,no binding (tested: 20-500 nM),B6
145 nM,–,B7
300 nM,–,B8
–,no binding (tested: 20-500 nM),B9
–,no binding (tested: 20-500 nM),B10
–,no binding (tested: 20-500 nM),B11
–,no binding (tested: 20-500 nM),B12
–,no binding (tested: 20-500 nM),B13

# Biological target: T2, human mesothelin on MSLN-positive cells (NCI-H292, SKOV3) (human, UniProt Q13421 296-598)
# T2 construct: whole, on cells; Endogenous expression on tumour cell lines; H1581 and Raji cells served as MSLN-negative controls; also called cell surface MSLN
# Experiment: Mirrorball microplate cytometry on adherent NCI-H292 (MSLN-positive) cells, 2 h; biotinylated VHH detected with streptavidin-PE; MMFI
# Experimental: Cells (5000 cells well-1) were seeded in Nunc® MicroWell 96-well optical bottom plates (Sigma-Aldrich) and incubated at 37° C. in a humidified atmosphere containing 5% CO₂ for 24-48 h. Each anti-MSLN biotinylated VHH was serially diluted in Live Cell Imaging Solution (LCIS; Thermo Fisher) and 50 μL of each Ab variant was added to the assay plate and incubated at 4° C. for 2 h. As positive control, anti-MF-T (human IgG1) monoclonal antibody (NRC-HHT-Montreal) was used. The wells were washed with LCIS, then Biotin-Streptavidin, R-Phycoerythrin Conjugate (SAPE) or donkey anti-Human Alexa Fluor (AF488) (at 3 ug/ml final concentration) was added to the wells and incubated at 4° C. for 1 h. The secondary Ab was removed, the cells were washed with LCIS then 50 μL of DRAQ5 nuclear stain (1 μM prepared in LCIS; Cell Signaling, Danvers, MA, USA) was added to wells and incubated for 10 min at 4° C. […] Data were analyzed using Cellista software (TTP Labtech) and GraphPad Prism 6 software. […]
# Cell binding activities of the selected VHHs were examined by Mirrorball where negative-(NCI-H1581) and positive (NCI-H292)-MSLN cells were cultured in 96 well plate and binding of the biotinylated VHHs was detected by Streptaviding-PE conjugate. As positive control, a human IgG1 mAb MF-T was used which was detected by donkey anti-human […].
# T2 sequence (Q13421 other isoform, or with tags, fused parts or gaps limits assumed): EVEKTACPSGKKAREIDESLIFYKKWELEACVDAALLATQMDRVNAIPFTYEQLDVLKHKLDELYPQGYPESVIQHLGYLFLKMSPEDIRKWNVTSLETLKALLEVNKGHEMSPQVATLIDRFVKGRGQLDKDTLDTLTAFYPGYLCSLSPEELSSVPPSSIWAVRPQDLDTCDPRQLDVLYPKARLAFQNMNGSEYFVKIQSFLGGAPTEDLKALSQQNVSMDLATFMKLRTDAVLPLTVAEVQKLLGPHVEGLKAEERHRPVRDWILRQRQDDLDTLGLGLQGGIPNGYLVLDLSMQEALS
row,EC50 (read off the curve),Binder
1,~3 nM,B3
2,~1 nM,B8

# Biological target: recombinant human mesothelin extracellular domain, isoform 1 (hMSLN-ECD, 10xHis) (human) (UniProt Q13421)
# Experiment: SPR (Biacore T200), VHH over immobilized hMSLN-ECD, 1:1 model
Kd,koff,kon,Binder
0.0924 nM,0.000351 s⁻¹,3.8e+06 M⁻¹ s⁻¹,B1
1.34 nM,0.00238 s⁻¹,1.78e+06 M⁻¹ s⁻¹,B3
0.571 nM,0.000433 s⁻¹,758000 M⁻¹ s⁻¹,B5
–,0.0138 s⁻¹,–,B6
0.0579 nM,0.000176 s⁻¹,3.04e+06 M⁻¹ s⁻¹,B7
0.225 nM,0.000388 s⁻¹,1.72e+06 M⁻¹ s⁻¹,B8
26.5 nM,0.0201 s⁻¹,757000 M⁻¹ s⁻¹,B9
52 nM,0.0305 s⁻¹,587000 M⁻¹ s⁻¹,B10
57.2 nM,–,–,B13

# Biological target: recombinant human mesothelin extracellular domain, isoform 1 (hMSLN-ECD, 10xHis) (human) (UniProt Q13421)
# Experiment: SPR (Biacore T200), VHH over immobilized hMSLN-ECD; no rate constants printed
row,Kd,Binder
1,214 nM,B4
2,276 nM,B12

# Biological target: human mesothelin on MSLN-positive cells (NCI-H292, SKOV3) (human) (UniProt Q13421)
# Experiment: cell-based or functional assay
# human mesothelin on MSLN-positive cells (NCI-H292, SKOV3) (human), sequence (Q13421 other isoform, or with tags, fused parts or gaps limits assumed): as above
row,EC50 of CD69 staining of Jurkat cells in co-culture with MSLN+ H292 cells,Binder
1,1 nM,B13
